Data reported in patent US20220313738A1 (NANJING LEGEND BIOTECH, published 2022).
Where a chain is given by its changes, count along the chain named.

B1: wildtype SIV Nef (other)
chain: MGSSNSKRQQQGLLKLWRGLRGKPGADWVLLSDPLIGQSSTVQEECGKALKKSWGKGKMTPDGRRLQEGDTFDEWDDDEEEVGFPVQPRVPLRQMTYKLAVDFSHFLKSKGGLDGIYYSERREKILNLYALNEWGIIDDWQAYSPGPGIRYPRVFGFCFKLVPVDLHEEARNCERHCLMHPAQMGEDPDGIDHGEVLVWKFDPKLAVEYRPDMFKDMHEHAKR
B2: SIV Nef M116 (other)
chain: B1 chain with L178A, M179A

Assays:
Test in all cases: cell-based or functional assay
[1] = molecular target: M665 (CD8α SP-BCMA scFv-CD8α hinge-CD8α TM-ISD)
[2] = molecular target: M666 (CD8α SP-BCMA scFv-CD8α hinge-CD8α TM-ISD)
[3] = molecular target: M663 (CD8α SP-BCMA scFv-CD8α hinge-CD8α TM-ISD)

Binder | relative ISD-modified CAR positive rate (FACS), day 3, against empty vector control [1] [%] | relative ISD-modified CAR positive rate (FACS), day 3, against empty vector control [2] [%] | relative ISD-modified CAR positive rate (FACS), day 3, against empty vector control [3] [%]
B1 | 82.3 | 57 | 46.7
B2 | 70.3 | 56.2 | 50.9
